Laboratory results taken from the nanobody polyreactivity screen of Harvey et al. (2022).

Experiment: yeast display, Sf9 membrane polyspecificity reagent, FACS + sequencing; frameworks hold sequencing errors
Outline: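 After 36–48 hours of galactose induction, yeast (Saccharomyces cerevisiae BJ5465) displaying a synthetic nanobody library were stained at 4 °C for 1 hour with 10% biotinylated, detergent-solubilized Sf9 membrane reagent. Streptavidin microbeads enriched the stained cells before FACS sorting into low and high (top ~1%) gates on anti-HA and streptavidin fluorescence. Each clone's polyreactivity label reflects its gate of origin.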
In the case of “QVQLVESGGGLVQAGGSLRLSCAASGRIFPYYAMGWYRQAPGKERELVAAISYSGGRTYYADSVKGRFTISRDNAKNTVYLQMNSLKPEDTAVYYCSAVVYLGYEYDYWGQGTQVTVSS”, the “polyreactivity (PSR sort gate)” value is reported as “low polyreactivity”. In the case of “QVQLVESGGGLVQAGGSLRLSCAASGRIFPYYTMGWYRQAPGKERELVATITTGGSTNYADSVKGRFTISRDNAENTVYLQMNSLKPEDTAVYYCNNDGVVVGRFTGPQEYDYWGQGTQVTVSS”, the “polyreactivity (PSR sort gate)” value is reported as “low polyreactivity”. For “QVQLVESGGGLVQAGGSLRLSCAASGRIFQANAKGWYRQAPGKERELVAAINSGDSTYYADSVKGRFTISRDNAKNTVYLQMNSLKPEDTAVYYCAADAVFQYYTYYYWGQGTQVTVSS”, the “polyreactivity (PSR sort gate)” value was “low polyreactivity”. In the case of “QVQLVESGGGLVQAGGSLRLSCAASGRIFQAYAMGWYRQAPGKERELVAAISRSGGGTYYADSVKGRFTISRDNAKNTVYLQMNCLKPEDTAVYYCNARGSTARGRGYWGQGTQVTVSS”, the “polyreactivity (PSR sort gate)” value is reported as “high polyreactivity”. For “QVQLVESGGGLVQAGGSLRLSCAASGRIFQDYAMGWYRQAPGKERELVAAITWSGGRTYYADSVKGRFTISRDNAKNTVYLQMNSLKPEDTAVYYCNRLTQSRLYYGPREYYYWGQGTQVTVSS”, the “polyreactivity (PSR sort gate)” value was “high polyreactivity”. In the case of “QVQLVESGGGLVQAGGSLRLSCAASGRIFQDYAMGWYRQPPGKERELVAAISSSGVRTYYADSVKGRFTISRDNAKNTVYVQMNSLKPEDTAVYYCATGYIFRYRQSAYVYWGQGTQVTVSS”, the “polyreactivity (PSR sort gate)” value is reported as “high polyreactivity”. For “QVQLVESGGGLVQAGGSLRLSCAASGRIFQGFAMGGYRQAPGKERELVAAISSGGRTYYADSVKGRFTISRDNAKNTVYLQMNSLKPEDTAVYYCAARSPKANGLQRFDYWGQGSQVTVSS”, the “polyreactivity (PSR sort gate)” value was “high polyreactivity”. With “QVQLVESGGGLVQAGGSLRLSCAASGRIFQGYAMGWYRQAPGKERELVAAISYRGASTYYADSVKGRFTISRDNAKNTVYLQMNSLKPEDTAVYYCAKVTPTSTRGHDYWGQGTQVTVSS” the “polyreactivity (PSR sort gate)” value was “low polyreactivity”. For “QVQLVESGGGLVQAGGSLRLSCAASGRIFQGYAMGWYRQAPGKERELVARITSGSNTNYADSVKGRFTISRDNAKNTVYLQMNSLKPEDTAVYYCAKEPVGSVRYGRFQQDDYWGQGTQVTVSS”, the “polyreactivity (PSR sort gate)” value was “low polyreactivity”. In the case of “QVQLVESGGGLVQAGGSLRLSCAASGRIFQGYAMGWYRQAPGKERELVASIRTGGTTNYADSVKGRFTISRDNAKNTVYLQMTRLKPEDNAVYYCNSGYYSYYGRYYYWGQGTQVTVSS”, the “polyreactivity (PSR sort gate)” value is reported as “high polyreactivity”. In the case of “QVQLVESGGGLVQAGGSLRLSCAASGRIFQGYVMGWYRQAPGKERELVAAITTGGSTYYADSVKGRFTISRDNAKNTVYLQMNSLKPEDTAVYYCAAKPTRSRKIYEYWGQGTQVTVSS”, the “polyreactivity (PSR sort gate)” value is reported as “low polyreactivity”. In the case of “QVQLVESGGGLVQAGGSLRLSCAASGRIFQGYVMGWYRQAPGKERELVAAITTGGSTYYADSVKGRFTISRDNAKNTVYLQMNSLKPEDTAVYYCYAVVYVSGYNPYIFGYWGQGTQVTVSS”, the “polyreactivity (PSR sort gate)” value is reported as “low polyreactivity”. For “QVQLVESGGGLVQAGGSLRLSCAASGRIFQKNAMGWYRQAAGKERELVAAISGSGSTTNYADSVKGRFTISRDNAKNTVYLQMNSLKPEDTAVYYCATGKRGVSGRGYRYVDYDYWGQGTQVTVSS”, the “polyreactivity (PSR sort gate)” value was “high polyreactivity”. With “QVQLVESGGGLVQAGGSLRLSCAASGRIFQKYAMGWYRQAPGKERELVAAITTSGGSTYYADSVKGRFTISRDNAKNTVYLQMNSLKPEDTAVYYCAAKSTLSKEGYWGQGTHVTVSS” the “polyreactivity (PSR sort gate)” value was “high polyreactivity”. For “QVQLVESGGGLVQAGGSLRLSCAASGRIFQLYTMGWYRQAPGKERELVAAITSGTSTSYADSVKGRFTISRDNAKNTVYLQMNSLKPEDTAVYYCNKGSVSYSSVFVPYESDYWGQGTQVTVSS”, the “polyreactivity (PSR sort gate)” value was “low polyreactivity”. In the case of “QVQLVESGGGLVQAGGSLRLSCAASGRIFQPNAMGWYRQATGNERELVAAISSSGGRTYYADSVKGRFTISRDNAKNTVYLQMNSLKPEDTAVYYCNAGGYRYRSYDYWGQGNQVTVSS”, the “polyreactivity (PSR sort gate)” value is reported as “high polyreactivity”. For “QVQLVESGGGLVQAGGSLRLSCAASGRIFQPYAMGWYRPAPGKERELVAVITSGGSTNYADSVKGRFTISRDNAKNTVYLQMNSLKPEDTAVYYCNAVRTVNDYHYDYWGQGTQVTVSS”, the “polyreactivity (PSR sort gate)” value was “high polyreactivity”. For “QVQLVESGGGLVQAGGSLRLSCAASGRIFQPYAMGWYRQAPGKERELVAAITRRAGSTYYADSVKGRFTISRDNAKNTVYLQMNSLKPEDTAVYYCAARGLYWAYEMEYWGQGTQVTVSS”, the “polyreactivity (PSR sort gate)” value was “low polyreactivity”. With “QVQLVESGGGLVQAGGSLRLSCAASGRIFQRYAMGWYRQAPGKERELVAVITKRGGNTYYADSVKGRFTISRDNAKNTVYLQMNSLKPEDTAVYYCATRSGRSTGDYWGQGTQVTVSS” the “polyreactivity (PSR sort gate)” value was “high polyreactivity”. For “QVQLVESGGGLVQAGGSLRLSCAASGRIFQSNAMGWYRQAPGKEREFVARISKRGGSTYYADSVKGRFTISRDNAKNTVYLQMNSLKPEDTAVYYCAVRRHDRGTMGYWGQGTQVTVSS”, the “polyreactivity (PSR sort gate)” value was “low polyreactivity”. With “QVQLVESGGGLVQAGGSLRLSCAASGRIFQSNAMGWYRQAPGKERELVAAISYSGGSTYYADSVKGRFTISRDNAKNTVYLQMNSLKPEDTAVYYCAADIFSPAFDYWGQGTQVTVSS” the “polyreactivity (PSR sort gate)” value was “low polyreactivity”. In the case of “QVQLVESGGGLVQAGGSLRLSCAASGRIFQSYAMGWYRQAPGKERELVAGINSDTSTNYADSVKGRFTISRDNAKNTVYLQMNSLKPEDTAVYYCNAGWDTYYWQSTEFDYWGQGSQVTVSS”, the “polyreactivity (PSR sort gate)” value is reported as “low polyreactivity”. In the case of “QVQLVESGGGLVQAGGSLRLSCAASGRIFQTYAMGWYRQAPGKERELVAAISSRGRTYYADSVKGRFTISRDNAKNTVYLQMNSLKPEDTAVYYCAARDWSHRPRGYDYWGQGTQVTVSS”, the “polyreactivity (PSR sort gate)” value is reported as “high polyreactivity”. For “QVQLVESGGGLVQAGGSLRLSCAASGRIFQTYTMGWYRQAPGKERELVARITGGDSTYYADSVKGRFTISRDNAKITVYLQMNSLKPEDTAVYYCAAEVWSYWGTFNYWGQGTQVTVSS”, the “polyreactivity (PSR sort gate)” value was “low polyreactivity”. With “QVQLVESGGGLVQAGGSLRLSCAASGRIFQVNAMGWYRQAPGKERELVAAITYSGGTTYYADSVKGRFTISRDNAKNNVYLQMNRLKPEYTAVYYCAAEGYGAQGDPWQYGYEYWGQGTKVTVSS” the “polyreactivity (PSR sort gate)” value was “low polyreactivity”. With “QVQLVESGGGLVQAGGSLRLSCAASGRIFQWNAMGWYRQAPGKERELVAAITYSGSSTNYADSVKGRFTISRDNAKNTVYLQMNSLKPEDTAVFYCNRDFYQYLSYFWHYGYWGQGTQVTVSS” the “polyreactivity (PSR sort gate)” value was “low polyreactivity”. In the case of “QVQLVESGGGLVQAGGSLRLSCAASGRIFQYNAMGWYRQAPGKDRELVAAIRRGGGSTYYADSVKGRFTISRDNAKNTVYLQMNSLKPEDTAVYYCAARRKRVSFYPEYDYWGQGTQVTVSS”, the “polyreactivity (PSR sort gate)” value is reported as “low polyreactivity”. In the case of “QVQLVESGGGLVQAGGSLRLSCAASGRIFQYNAMGWYRQAPGKERALVAAIRRGGGSTYYADSVKGRFTISRDNAKNTVYLQMNSLKPEDTAVYYCAARRKRVSFYPEYDYWGQGTQVTVSS”, the “polyreactivity (PSR sort gate)” value is reported as “low polyreactivity”. With “QVQLVESGGGLVQAGGSLRLSCAASGRIFQYNTMGWYRQAPGKERELVARISWSGGSTRYADSVKGRFTISRDNAKNTVDLQMNSLKPEETEVYYCAVQEAYRYAHAYYYWGQGTQVTVSS” the “polyreactivity (PSR sort gate)” value was “high polyreactivity”. For “QVQLVESGGGLVQAGGSLRLSCAASGRIFQYYAMGWYRQAPGKERELVASISGRGGRTYYADSVKGRLTISRDNAKNTVYLQMNSLKPEDTAVYYCNAVFSTIRYIRSYNYWGQGTQVTVSS”, the “polyreactivity (PSR sort gate)” value was “high polyreactivity”. With “QVQLVESGGGLVQAGGSLRLSCAASGRIFQYYAMGWYRQAPGKERELVATITSTGSTYYADSVKGRFTISRDNAKNTVYLQMNSLKPEDTAVYYCNADPWGIYETFGDHDYWGQGTQVTVSS” the “polyreactivity (PSR sort gate)” value was “low polyreactivity”. With “QVQLVESGGGLVQAGGSLRLSCAASGRIFQYYTIGWYRQATGKERELVAAIRSSGGITYYADSVKGRFTISRDNAKYTVYLQMNSLKPEDTAVYYCAARWYRSKYDYWGQGTQVTVSS” the “polyreactivity (PSR sort gate)” value was “high polyreactivity”. With “QVQLVESGGGLVQAGGSLRLSCAASGRIFQYYTMGWNRQAPGKERELVAAITYSGGDTRYADSVKGRFTISRDTAKNTVYLQMNSLKPEDTAVYYCAADYFDQYQYGVWTYGYWGQGTQVTVSS” the “polyreactivity (PSR sort gate)” value was “low polyreactivity”. In the case of “QVQLVESGGGLVQAGGSLRLSCAASGRIFQYYTMGWSRQAPGKERELVAAITRSGGSTYYADSVKGRFTISRDNAKNTVYLQMNSLKPEDTAVYYFNADTRVKLPWYYTFDYLGQGTQVTVSS”, the “polyreactivity (PSR sort gate)” value is reported as “low polyreactivity”. In the case of “QVQLVESGGGLVQAGGSLRLSCAASGRIFQYYVMGRYRQAPGKEREWVAAMTSGGGTKYADSVKGRFTISRDNEKNTVYLQMNSLKPEDTAVYYCAAAWFDQYSRYDYWGQGSQVTVSS”, the “polyreactivity (PSR sort gate)” value is reported as “low polyreactivity”. With “QVQLVESGGGLVQAGGSLRLSCAASGRIFRANTMGWYRQAPGKERELVAVITASGGSTYYADSVKGRFTISRDNAKNTVYLQMNSLKPEDTAVYYCNVRWSPAGTGLLDYWGQGTQVTVSS” the “polyreactivity (PSR sort gate)” value was “high polyreactivity”. In the case of “QVQLVESGGGLVQAGGSLRLSCAASGRIFRAYAMGWYRQAPGKERELVAAISSRGGSTYYADSVKGRFTISRDNAKNTVYLQMNSLKPEDTAVYYCNVDTPFREGSYDYWGQGTQVSVSS”, the “polyreactivity (PSR sort gate)” value is reported as “high polyreactivity”. For “QVQLVESGGGLVQAGGSLRLSCAASGRIFRAYAMGWYRQAPGKERELVAAISYRGGSTYYADSVKGRFTISRDNAKNTVYLQMNSLKPEDTAVYYCAADSDRSVWIYGYSGQGTQVTVSS”, the “polyreactivity (PSR sort gate)” value was “low polyreactivity”. For “QVQLVESGGGLVQAGGSLRLSCAASGRIFRAYAMGWYRQAPGKERELVAAITSGVSTNYADSVKGRFTISRDNAKNTVYLQMNSLKPEDTAVYYCAADIYVIYEYWGQGTQVTVSS”, the “polyreactivity (PSR sort gate)” value was “low polyreactivity”. For “QVQLVESGGGLVQAGGSLRLSCAASGRIFRDYDMGWYRKAPGKEWELVAAITYRGGSTYYADSVKGRFTISRDNAKNTVYLQINSLKPEDTAVYYCAAGSRSPHWYTRELDYWVQGTQVTVSS”, the “polyreactivity (PSR sort gate)” value was “low polyreactivity”. For “QVQLVESGGGLVQAGGSLRLSCAASGRIFRFNAMGWYRQAPGKERELVAAITGSGGTTFYADSVKGRFTLSRDNAKNTVYLQMNSLKPEDTAVYYCNTLGNWRPVYNQPRYEYWGQGTQVTVSS”, the “polyreactivity (PSR sort gate)” value was “high polyreactivity”.
